# Columns and labels:
# [1] = target: WT-Dsg2, complete extracellular region (EC1-5) of human desmoglein-2 (human) (UniProt Q14126); test: single-molecule AFM binding assay
# [2] = target: Full-length I175D Pcad fused to a C-terminal mCherry tag (human); test: co-IP
# [3] = target: Full-length W2A Pcad fused to a C-terminal mCherry tag (human); test: co-IP
# [4] = target: W2A-Dsg2, complete extracellular region (EC1-5) of human desmoglein-2 (human) (UniProt Q14126); test: single-molecule AFM binding assay
Substance,binding probability [1],Dsg2 binding capacity relative to WT-Pcad (Dsg2/Pcad pull-down ratio) [2],Dsg2 binding capacity relative to WT-Pcad (Dsg2/Pcad pull-down ratio) [3],binding probability [4]
"A5P-Pcad, complete ectodomain of human P-cadherin (from UniProt P22223 25-654) (domain or fragment)",4.5%,,,
"Desmoglein-2 (Dsg2), endogenous in A431 cells (from UniProt Q14126 50-1118) (natural protein)",,80%,25%,
"I175D-Pcad, complete extracellular region (EC1-5) of human P-cadherin (from UniProt P22223 25-654) (domain or fragment)",7.8%,,,
"W2A-Pcad, complete extracellular region (EC1-5) of human P-cadherin (from UniProt P22223 25-654) (domain or fragment)",4%,,,
"WT-Pcad, complete extracellular region (EC1-5) of human P-cadherin (from UniProt P22223 25-654) (domain or fragment)",8%,,,4%

# — article doi:10.1101/2025.09.15.676363
